The text below walks through data of US20260043807A1.

Assay [1] addresses Goat IgG. Kind of assay: photo-crosslinking, 365 nm 2 hrs, SDS-PAGE (FIG. 6).
The target of assay [2] is Goat IgG. The assay is described as above. This is another data set of the same source.

Where two headings read alike, the source gives them in different places.

Regarding “Protein L C* domain T46BPA (designed binder)”, the conjugation efficiency in the assay with Goat IgG [1] is 30 to 50%; with Goat IgG [2], 50%.
